B1: Elastase: Human Neutrophil Elastase (Sigma), used as surface recognition domain component (protein, listed as Homo sapiens)
chain: EIVGGRRARPHAWPFMVSLQLRGGHFCGATLIAPNFVMSAAHCVANVNVRAVRVVLGAHNLSRREPTRQVFAVQRIFENGYDPVNLLNDIVILQLNGSATINANVQVAQLPAQGRRLGNGVQCLAMGWGLLGRNRGIASVLQELNVTVVTSLCRRSNVCTLVRGRQAGVCFGDSGSPLVCNGLIHGIASFVRGGCASGLYPDAFAPVAQFVNWIDSIIQ
modifications: truncated neutrophil elastase protein
notes: Human Neutrophil Elastase (Sigma), used as surface recognition domain component

How the values were obtained:
[1] = system: Xylella fastidiosa (Xf strain "Stags Leap"); format: cell-based
E. coli strain HB 101 = format: cell-based
[2] = system: Xf outer-membrane protein mopB; format: biochemical, Xylella fastidiosa

Molecule	bacterial growth inhibition (killing) of Xf [1]	bacterial growth inhibition (killing) of E. coli (E. coli strain HB 101)	effect of elastase on Cecropin B-stimulated lysis of Xf cells [1]	digestion of purified mopB [2]
Cecropin B [reference compound]	some growth inhibition	complete growth inhibition		
B1	insufficient to inhibit bacterial growth	insufficient to inhibit bacterial growth	greatly enhances	at least partially digested
